{"source": "patent US20210277141A1", "about": "(ORIMABS, published 2021)", "binders": {"B1": {"name": "PSMAb-DM1 (antibody, human IgG1, lambda, V domains shown)", "VH": "EVQLVESGGALAKPGGSLRLSCAASGFTLSGYAMHWVRQAPGKGLEWVAVISYDGSNKYYADSVKGRFTVSRDNSKNTLFLQMNSLRPEDTAVYYCAKGLTWGLGDNDALDIWGPGTTVTVSS", "VL": "QSVLTQPPSVSGAPGQSVIISCTGSSSNIGAGSHVHWYQQVPGTAPKLLIYENTNRPSGVPDRFSGSKSGTSGSLAITGLQPEDEADYYCATWDDSLNGVIFGGGTKATVLG", "modifications": "DM1 through SMCC linker, drug/Ab conjugation ratio 3.3 per antibody; conjugated residues and chain not stated", "notes": "also called PSMAb-ADC; PSMAb conjugate with DM1"}, "B2": {"name": "PSMAb-MMAE (antibody, human IgG1, lambda, V domains shown)", "VH": "B1 VH", "VL": "B1 VL", "modifications": "MC-vc-PAB-MMAE after partial reduction with TCEP, drug loading 3.5 per antibody; conjugated residues and chain not stated", "notes": "also called PSMAb-ADC; PSMAb conjugate with MMAE"}, "B3": {"name": "PSMAb-MMAF (antibody, human IgG1, lambda, V domains shown)", "VH": "B1 VH", "VL": "B1 VL", "modifications": "MC-vc-PAB-MMAF after partial reduction with TCEP, drug loading 3.03 per antibody; conjugated residues and chain not stated", "notes": "also called PSMAb-ADC; PSMAb conjugate with MMAF"}, "B4": {"name": "PSMAb (full IgG1 antibody engineered from gy1-2 scFv) (antibody, V domains shown)", "VH": "B1 VH", "VL": "B1 VL", "notes": "IgG1 heavy constant region and lambda light constant region; expressed in CHO-S cells; also called PSMAb full antibody"}, "B5": {"name": "gy1 scFv (secreted by yeast strain YVH10) (scFv)", "scFv": "QSVLTQPPSVSGAPGQSVIISCTGSSSNIGAGSHVHWYQQVPGTAPKLLIYGNTNRPSGVPDRFSGSKSGTSGSLAITGLQPEDEADYYCATWDDSLNGVIFGGGTKVTVLGGSSRSSSSGGGGSGGGGEVQLVESGGALAKPGGSLRLSCAASGSTLSGYAMHWVRQAPGKGLEWVAVISYDGSNKYYADSVKGRFTISRDNSKNTLFLQMNSLRPEDTAVYYCAKGLTWGLGDNDALDIWGPGTTVTVSS", "notes": "also called scFv gy1; anti-PSMA scFv gy1; not shown: Flag tag at the N terminus; V5 tag at the C terminus; 6xHis tag at the C terminus"}, "B6": {"name": "E. coli expressed gy1 scFv (pET302-gy1, BL21) (scFv)", "scFv": "B5 scFv", "notes": "also called E. coli expressed scFv gy1; not shown: His tag (purified on HisTrp HP column, detected with anti-6His)"}}, "key": {"[1]": {"molecular_target": "T1, Prostate specific membrane antigen (PSMA) expressed on cell surface (human, UniProt Q04609 1-750)", "T1 sequence (Q04609 whole entry)": "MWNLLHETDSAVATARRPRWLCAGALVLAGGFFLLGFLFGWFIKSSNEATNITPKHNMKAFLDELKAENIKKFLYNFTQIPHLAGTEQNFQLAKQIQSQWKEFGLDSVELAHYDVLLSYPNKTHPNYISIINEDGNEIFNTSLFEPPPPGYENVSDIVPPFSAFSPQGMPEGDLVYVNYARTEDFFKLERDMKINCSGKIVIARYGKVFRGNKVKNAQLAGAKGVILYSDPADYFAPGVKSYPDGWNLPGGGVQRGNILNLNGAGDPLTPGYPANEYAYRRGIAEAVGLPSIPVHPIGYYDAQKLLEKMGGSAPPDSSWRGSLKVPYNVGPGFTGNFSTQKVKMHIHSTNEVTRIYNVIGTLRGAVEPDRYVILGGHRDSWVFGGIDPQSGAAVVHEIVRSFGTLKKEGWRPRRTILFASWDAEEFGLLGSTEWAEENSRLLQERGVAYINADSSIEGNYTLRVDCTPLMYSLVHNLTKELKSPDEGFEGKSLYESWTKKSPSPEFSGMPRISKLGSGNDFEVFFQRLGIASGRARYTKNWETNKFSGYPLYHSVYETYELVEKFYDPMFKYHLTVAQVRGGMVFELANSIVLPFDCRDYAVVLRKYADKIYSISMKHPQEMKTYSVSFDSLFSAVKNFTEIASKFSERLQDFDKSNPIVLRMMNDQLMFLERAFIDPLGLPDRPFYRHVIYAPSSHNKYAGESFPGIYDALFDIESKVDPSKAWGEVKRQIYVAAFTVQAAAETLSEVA", "test": "cell-based or functional assay"}, "[2]": {"molecular_target": "T1, Prostate specific membrane antigen …", "test": "cell ELISA on fixed C4-2 cells; 3-fold dilutions from 100 nM to 0.19 pM; detection with HRP anti-human IgG Fc, TMB"}, "[3]": {"molecular_target": "T1, Prostate specific membrane antigen …", "test": "cell ELISA on fixed C4-2 cells, 100 nM to 0.19 pM, HRP anti-human IgG Fc"}, "[4]": {"molecular_target": "T2, PSMA (form not stated; as named in the summary sentence of paragraph 43) (UniProt Q04609 44-750, limits assumed)", "T2 construct": "The summary sentence gives neither the assay nor the form of PSMA, so the value could not be assigned to m8, m9 or m10; also called prostate specific membrane antigen", "T2 sequence (Q04609 44-750 limits assumed)": "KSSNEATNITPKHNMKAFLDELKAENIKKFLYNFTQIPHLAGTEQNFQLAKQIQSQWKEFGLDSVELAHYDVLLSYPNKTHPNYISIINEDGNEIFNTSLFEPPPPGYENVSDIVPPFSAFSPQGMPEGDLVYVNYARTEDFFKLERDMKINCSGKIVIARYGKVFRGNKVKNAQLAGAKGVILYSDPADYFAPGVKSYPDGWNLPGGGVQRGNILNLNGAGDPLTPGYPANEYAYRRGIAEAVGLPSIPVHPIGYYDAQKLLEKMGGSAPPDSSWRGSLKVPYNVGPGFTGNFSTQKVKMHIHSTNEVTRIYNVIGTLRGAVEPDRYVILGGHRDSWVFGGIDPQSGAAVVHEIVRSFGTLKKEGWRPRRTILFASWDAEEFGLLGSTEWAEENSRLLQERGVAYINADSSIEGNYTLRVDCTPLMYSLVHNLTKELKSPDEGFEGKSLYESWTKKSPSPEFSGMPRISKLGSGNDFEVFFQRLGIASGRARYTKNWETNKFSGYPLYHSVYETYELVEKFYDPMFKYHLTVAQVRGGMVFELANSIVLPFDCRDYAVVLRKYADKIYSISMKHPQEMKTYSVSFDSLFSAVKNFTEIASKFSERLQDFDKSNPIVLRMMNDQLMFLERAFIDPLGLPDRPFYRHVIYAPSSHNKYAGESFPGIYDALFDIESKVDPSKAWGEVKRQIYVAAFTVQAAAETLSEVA", "test": "not stated (summary sentence in the description)"}, "[5]": {"molecular_target": "T3, biotinylated recombinant extracellular domain of human PSMA (human, UniProt Q04609 44-750, biotinylated with EZ-Link Sulfo-NHS-Biotin (protein:biotin 1:20); residues not stated)", "T3 construct": "Bought from R&D systems; also called biotinylated PSMA; biotinylated PSMA protein", "T3 sequence (Q04609 44-750)": "as the sequence (Q04609 44-750 limits assumed) above", "test": "capture ELISA: anti-Flag coated, gy1 scFv in 3-fold dilutions, 0.5 ug/ml biotinylated PSMA, streptavidin-HRP, TMB", "experimental": "(§1) Briefly, anti-Flag antibody (Sigma) was coated on ELISA plate at 4° C. overnight in PBS. […] Plate was then washed and incubated with biotinylated PSMA and the binding was detected with streptavidin-HRP, and analyzed by colorimetric development using TMB and then stop buffer. Absorbance at OD450 was measured and the affinity was calculated using GraphPad Prism software.\n(§2) There is a Flag tag and a V5 tag at the N and C terminus of scFv, and thus antibodies to these tags were used to capture the scFv for ELISA assay. Briefly, anti-Flag antibody (Sigma) was coated on ELISA plate at 1 μg/ml, 50 μl/well at 4° C. overnight in PBS. […] Plate was washed 6 times with PBST and then incubated with 0.5 μg/ml biotinylated PSMA in PBS™ for 1 more hour at RT. After 6 washes, plate was incubated with 1:1000 diluted streptavidin-HRP (BD Bioscience) in PBS™ at RT for 30 min. Plate was washed again for 6 times and incubated with TMB for 20 min at RT, colorimertric reaction was stopped with stop buffer and the absorbance was read at OD450."}, "[6]": {"molecular_target": "T3, biotinylated recombinant extracellular …", "test": "capture ELISA: scFv (100 nM to 0.137 nM) captured on anti-Flag, 0.5 µg/ml biotinylated PSMA, streptavidin-HRP; GraphPad Prism", "experimental": "as §1, §2"}, "[7]": {"molecular_target": "T1, Prostate specific membrane antigen …", "test": "cell ELISA on fixed C4-2 cells, 8100 nM to 0.005 nM, HRP anti-6His; one-site binding hyperbola", "experimental": "(§3) Briefly, C4-2 cultured in 96-well plate were fixed with 4% paraformaldehyde, blocked with 3% H₂O₂ and 6% bovine serum albumin sequentially. […] Cell binding was detected with HRP-conjugated mouse anti-6His and colorimetric signals were developed by TMB and stopped by STOP buffer.\n(§4) The next day, cells were fixed with 4% paraformaldehyde for 20 min before being treated with 3% H₂O₂ for 20 minutes to block endogenous peroxidase followed by blocking with 6% bovine serum albumin for 30 min at room temperature. […] Cells were then washed with PBST and incubated with HRP-conjugated mouse anti-6His antibody (AbD Serotec, Bio-Rad, Oxford, UK) for 1h at room temperature. Colorimetric signals were developed by addition of 3, 3′, 5, 5′-tetramethylbenzidine (TMB, eBioscience, CA, USA) and stopped by incubation with 1 M […] for 15 minutes. The absorbance was measured at 450 nm using a Sunrise microplate reader (Tecan, Groedig, Austria) and the binding curves were analyzed using GraphPad Prism 5.0 software."}, "[8]": {"molecular_target": "T1, Prostate specific membrane antigen …", "test": "cell ELISA on fixed C4-2 cells; 3-fold dilutions, 1 h, 37 °C; detection with HRP mouse anti-6His, TMB", "experimental": "as §3, §4"}}, "data": [{"binder": "B1", "values": [{"measurement": "IC50 of cytotoxicity on C4-2 cells (alamarBlue, 4 days)", "setting": "[1]", "value": 0.12, "unit": "nM"}]}, {"binder": "B2", "values": [{"measurement": "IC50 of cytotoxicity on C4-2 cells (alamarBlue, 4 days)", "setting": "[1]", "value": 0.59, "unit": "nM"}]}, {"binder": "B3", "values": [{"measurement": "IC50 of cytotoxicity on C4-2 cells (alamarBlue, 4 days)", "setting": "[1]", "value": 0.92, "unit": "nM"}]}, {"binder": "B4", "values": [{"measurement": "EC50 (read off the curve)", "setting": "[2]", "value": "~0.1", "unit": "nM"}, {"measurement": "Kd", "setting": "[3]", "value": 0.1, "unit": "nM"}]}, {"binder": "B5", "values": [{"measurement": "Kd", "setting": "[4]", "value": 0.9, "unit": "nM"}, {"measurement": "EC50 (read off the curve)", "setting": "[5]", "value": "~1", "unit": "nM"}, {"measurement": "Kd", "setting": "[6]", "value": 1.17, "unit": "nM"}]}, {"binder": "B6", "values": [{"measurement": "Kd", "setting": "[7]", "value": 4.13, "unit": "nM"}, {"measurement": "EC50 (read off the curve)", "setting": "[8]", "value": "~300", "unit": "nM"}]}]}
